Measurements: the DeepSol protein solubility set

experiment: soluble on expression in E. coli; label from the status in PepcDB or PDB records

| Sequence | soluble on expression in E. coli |
| --- | --- |
| GKDFKYNIGFNLSDVKNKVIDLRGYKSSTTELTAKIEGQPLNAIFGFETLGICDNQELYDKYAPMMQKYNPKWGMGDIIIKDRTGEGVINDEDRTVIGNSIPRFTFGLNLGFEYKGFDFSCFFQGVGKADGYVTMEAIQPMGINGARKEHYKESFNPQDPKPGAYFPRILSSDYNYAYMSHWVQDASYIRLKNLQIGYSFKIKGLNQLRVYASGENLFTATKYRTWDPETPVGARGFYPNVAVYSMGVNLNF | not soluble |
| MAGDPMKKLAFAITATSGAAAFLTHHDAQASTQHTVQSGESLWSIAQKYNTSVESIKQNNQLDNNLVFPGQVISVGGSDAQNSSNTSPQAGSASSHTVQAGESLNIIASRYGVSVDQLMAANNLRGYLIMPNQTLQIPNGGSGGTTPTATTGSNGNASSFNHQNLYTAGQCTWYVFDRRAQAGSPISTYWSDAKYWAGNAANDGYQVNNTPSVGSIMQSTPGPYGHVAYVERVNGDGSILISEMNYTYGPYNMNYRTIPASEVSSYAFIHLEHHHHHH | not soluble |
| MGTVLCSCLLGDNAKVRLKLSKMLEEEASGFYPDVLPEGSVSICEVEMKGCRREFYADRRSEEIEIGTPVIVEADGGFDMGVVYSTGRIALRKLQLKGLVSEVEKLPAIMRRATEEEVREFTEIRKREPEIREACLKRIERHQLDMKLVDIDLRLDQQKLSVYYTATHRIDFRGLVRDLAGEFKARIQMVQITTREEARRTNAQGSCGCALCCSTWMQKIHSNPFAEKPQMPDSMNGDNFSFNTIGLCNRPKCCLGFSKTNGKNGNCHHGKVRQNGWPSVGTTFTVRDGNAVVEGVDQQKKSIWIRYVSTGQKRRISLDQYNNMAGKRQGGQALEHHHHHH | not soluble |
| MLPAVDDRCSGGYAGDVVADETIIDLAGPSEGLGVRPDKQRAAAYAGAYYIRDKTHQLGTGEKMREVTKRGFGIGVTAVSRVGSADDLYSVSPVITAISIDKPSPGSTVALGRALQMHQANGFAASVKTKANARLPYLCVDMGYSVRPDFTTVVHDHGFAPVMRYPVSRQTVWASEKPEFGSQSPGPVQINSAFYCPAALPLARQRRLVRRLNELLDEQDGFEAHDQALQKLLPLLMGTNSRPLKFVSKRKRSPETIPTYQIDLVCPAVQGRVKCPLKPESLIIAFDQPEVKPTWSADRYRCCSKSQIRHTYSSEQWKLAQWGMVPGSWEHAIYYEAARSLTEQRFSIMKSQHLSGREHLKWSPRREPMISVIIALWIAATNLAIQDSHVAKMPRPSSIKKQKRRLERDLGRALMSTPPRT | not soluble |
| MHLTREVNIMSILSAVSRVINNFSTEIKNRVVEVGSNLKKSTEEFIGEVVIKAAVNRLKQGMLNALSSSNDTTKDNGNDLSTNSPDIEDVSAPTLSSKKKTEANTTLVGSTGIMQKLLGNIGVNSEQSIEVLSKHFNGAVERFTQDVSKAANEAVCEKIKSIQPEDVVKGINSLIGNTLKVDSESGDTTLSFKLESAVQILGVILAAMGMLMFASQTKSTEQKTLEIEHLPTEEIQPPSLAIH | not soluble |
| MNTKYNKEFLLYLAGFVDGDGSIIAQIEPNQSYKFKHRLKLTFKVTQKTQRRWFLDKLVDEIGVGYVSDSGSVSNYILSEIKPLHNFLTQLQPFLKLKQKQANLVLKIIEQLPSAKESPDKFLEVCTWVDQIAALNDSKTRKTTSETVRAVLD | soluble |
| MGSDKIHHHHHHMQGIQQSLPLAVVRGEPVRELPADLFIPPEALEVFLEAFEGPLDLLLYLIRKQKLDVIELPLTLIAAQYLEYIRLLTDARIELAADYLVMAATLAEIKSRLLLPKMAVEDDEEEDPRVRLIKQLKAYESIREAAFKLDELPRLERDVHQARAQAAPGLKPEVIPPDVSLKELALAFAEVLKRASAFEHHQVKKEVLSTRERMSEILAKLDHEHFTPFTALFSPEEGRGGVVVSFLALMELVKETLVELYQAEPLSGIYVKAT | not soluble |
| MGSDKIHHHHHHMFSYEKVQTLNQLELFVYKYVTSHLEECKTMTIRDLSTQSHVSSTTILRFLKKMGFEGFSDFKYVLRHRNDRTPASELSQDLGPIGQFLKQTATTEYTEKMEEVARVVAQSNTRLFFGMGSSGSMAQYGARILSNYGMLTLAITDPFQPQPISERDYSKTLIILLSVSGETEGVLTQANYYRQNGAKIVAITANSTSTLAQIADYSLTYDIPENKVGSLNFTSQIPVVYLLEQLGEKTSKLVYHPEISHEI | not soluble |
| MLAYQGTQIKEKRDEDAGFDLCVPYDIMIPVSDTKIIPTDVKIQVPPNSFGWVTGKSSMAKQGLLINGGIIDEGYTGEIQVICTNIGKSNIKLIEGQKFAQLIILQHHSNSRQPWDENKISQRGDKGFGSTGVF | soluble |
| MRQRSSYPKPFKAQVVQECLQPGATVSSVAINHGINANVIRKWLPLYRDLPAAASLPAFVPLKAAPKRPVEASVIIELPVAGQVITVKWPASDPEGCAQFIRAFAQLEHHHHHH | not soluble |
| MFAYDRLALDLAVFNLKDVDSGNSSSSERSSPPTRIMSQAQNINDESGSSGYGSPTRTPLASPSNDIFSSVLPLQVQRAFSAQSPEEITRHFGVSPSPQAVKPVPEVQQQREQAQVSQTSAQGLAAVDGFSMAEIAGFAELLSSPKKTPPPRYQCHICYATGHHYISDCPQRFNTPYDELTPYQGRKKCYGEFTCQLCKRKWNSQNSVANEPQSCIKCHVPVFPHKQLPVEKAVTLGLIKAQNVTKVAPIGHGRPPARKHEEISRRH | not soluble |
| SAEEPEPDLGVAEGSEDQALEMPSWKAPEDIDPQPGSYEIRHYGPAKWVSTCVESLDWDSAIQTGFTKLNGYIQGKNEKEMKIKLTAPVTSYVEPGSSPFSLLMDSPVAKRIKNNF | soluble |
| MLPLIKRLFSSAPKDGEGAQKKWPFSYVVVLLLAGVALMAASHWANSGEEAEAKPSAGQPSAPAEPAFLASKETKEKVIAAYEERYEKELKAALEAIEGVDDVTVVVNLDSTELKLYEKKRSTQQQTTEESDKEGGKRTIENESTNEEVIIIHNGEEETPLVVATKKPDIRGVLVVAKGADNLQIKKWIVEAVTRVLNVPSYRVAVLPKK | not soluble |
| INPPQHKQFQNLMPMQPRRYPEGKVLPDREREFPNTFPEHSSPLLLPKQELDMRWRGPHPLPGY | not soluble |
| MGSDKIHHHHHHMSAEPIIQVENLSKMYRLGLKNEIHDSIAEAAVSWLKTPVKNYRNLKSLNTFGVPVDEDDPGVLWALRDVSFEVAEGEVLGIIGRNGAGKSTLLKVLSRITEPTRGRVIINGRVASLLEVGTGFHPDLTGRENVFMNGSILGMRKGEIAAKFDEIVDFAGLDRFIDTPIKRYSSGMVMRLAFSVAAHLEPEILIIDEVLAVGDAAFQKKCLDKMHKVASGGRTVLFVSHQLNSVSALCGRVMHMDSGRIIKNGDTRQVIDHYLTSAGFGVTTALHDRKDRCGAGHVRFVNSWIEDMQGNRLASAVSGEPVRIALEYQSHAEESFSDVKVYLRLYSMLNKPAGLFSNVYTEERIDISAGENGVLYCTVPRMMLNGGRYFFHLKLEAQGRQLDHIENAGYMEVEAGNVYANGKMPNDQWVYLHDYGWSGEPLHKG | not soluble |
| MHHHHHHSSGRENLYFQGVWKSYLYQLQQEAPHPRRITCTCEVENRPKYYGREFHGMISREAADQLLIVAEGSYLIRESQRQPGTYTLALRFGSQTRNFRLYYDGKHFVGEKRFESIHDLVTDGLITLYIETKAAEYIAKMTINPIYEHVGYTTLNREPAYKKHMPVLKETHDERDSTGQDGVSEKRLTSLVRRATLKENEQIPKYEKIHNFKVHTFRGPHWCEYCANFMWGLIAQGVKCADCGLNVHKQCSKMVPNDCKPDLKHVKKVYSCDLTTLVKAHTTKRPMVVDMCIREIESRGLNSEGLYRVSGFSDLIEDVKMAFDRDGEKADISVNMYEDINIITGALKLYFRDLPIPLITYDAYPKFIESAKIMDPDEQLETLHEALKLLPPAHCETLRYLMAHLKRVTLHEKENLMNAENLGIVFGPTLMRSPELDAMAALNDIRYQRLVVELLIKNEDILF | soluble |
| AIAVHRDPAEELWCELWQPGVDITRKMNAIFGLKEIGTERAVTLLCAALLDARERSVLVRHEIAYVLGQIQSAASIKTLTDRLIDTDENSIVRHECGEALGAVRAFAVRPILQKLCGDAVPEVRETCVLALERLRWLEEKSTNEERVRETSAKAFKLFETVDPAPAFVAPDDLEASWSNAELGELLLNENEPLFRRYRALFTLRDRNTDDTAGVIAAALRRDTSSALFRHEVAYVLGQMSRACTLPALESALADTHEHAMVRHEAAEAIGAIGNSSACDILRRFLRDANVIVRESCQVALDIAGISDDCQFMD | soluble |
